From paper PMC8166773

Molecular target: influenza HA proteins mixture of A/California/7/09 (H1N1), A/Victoria/210/09 (H3N2), and B/Brisbane/
Test: SPR
Details: natural protein

Substance: Pseudomonas taiwanensis lectin (PTL)
- Kd: 8.9 nM
- koff: 9.1e-06 s⁻¹
